According to the supplement of paper PMC12042874:
± gives the uncertainty stated by the source.

Experiment: amyloid nucleation score (Sup35N fusion, yeast selection) (log enrichment); library NNK2; higher = more nucleation; inactive = no reads after selection
Method in brief: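 The nucleation score is the log enrichment of output over input reads, calculated with DiMSum and centred on the mode score of non-aggregating sequences. Sequences with under 100 input reads were excluded. Reads came from Illumina sequencing of plasmid inserts from psi-negative yeast expressing Sup35N fused to peptides of 20 random codons, induced 24 hours with 100 μM copper sulfate and grown 7 days at 30°C without adenine and uracil.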

| Substance | amyloid nucleation score |
| --- | --- |
| PLGSNACPTHFSCD | inactive |
| PLITDFLAGMLSPENVSVPQ | 0.883 ± 0.51 |
| PLLSVVYTNLRSSDGRVV | 1.54 ± 0.31 |
| PLQPTQTYPFNSVFDGHKRV | inactive |
| PLVTCHDDEVQGMKFVSFFI | -0.451 ± 0.76 |
| PMDEWHSFPLQNKLRVIGCG | 0.115 ± 0.23 |
| PMNFYYIAPNICGLREKLWS | 3.62 ± 0.064 |
| PNVAIYIPTGYGLTVTPPAS | -1.02 ± 0.76 |
| PQRLWISISAHTLKFPHL | 3.77 ± 0.073 |
| PQWEKRFKYTNEWAATFNGL | inactive |
| PRLCDECPSCVDLSGVWNPY | inactive |
| PRPFGKNWVKKDLNCLHKLN | -0.251 ± 0.35 |
| PRPVLAAALAKPLGTS | 0.87 ± 0.23 |
| PRTISSSRLMWRYVSYLVIV | inactive |
| PRVGRRGSLRKCPWLLWYVL | 0.052 ± 0.45 |
| PRWGRTMGCFSFRDPCRVTG | -0.277 ± 0.35 |
| PSIDSCRGRLVVRVQIRVEN | -1.24 ± 1.1 |
| PSLMNEVRMGVQCLLFST | 0.108 ± 0.23 |
| PSRLRYITICRVPGAMSDVN | 0.268 ± 0.27 |
| PSRYAVLLCFGGVDTNVGIT | 4.967 ± 0.049 |
| PSSVKWTRSPGMRTTNGEVC | 1.36 ± 0.23 |
| PSTIGRMVVLACWSDICRRG | 8.88 ± 0.059 |
| PSWDDFSSPEVS | -0.524 ± 0.39 |
| PTGPNSGNCIVLCPSDKSHE | -0.363 ± 1.1 |
| PTGYILESTYFTGQGKCAGL | -0.255 ± 1.1 |

| Substance | amyloid nucleation score |
| --- | --- |
| PTLHMGMPN | -0.013 ± 0.79 |
| PTMFNFKIYQIVRVGLPIHL | -1.53 ± 0.76 |
| PTSNLSWVT | 1.71 ± 0.17 |
| PVCCFAHMIIHYNCLGQKAY | 2.08 ± 0.12 |
| PVGWSNRFRTMLPDS | 0.861 ± 0.48 |
| PVHSAVATVLTLVNGKIGGA | 1.24 ± 0.48 |
| PVIRRLEFGWQNASYG | -0.564 ± 0.76 |
| PVKTNFCENINYFIVPGFAL | inactive |
| PVLYFLGLSMVDNTITRSTA | -0.763 ± 0.34 |
| PVMDNLFSKAFVG | -0.741 ± 0.5 |
| PVNRQNFFSCD | -1.67 ± 0.62 |
| PVYSSFYCCYVWHRNFRKYT | -0.975 ± 0.29 |
| PWACIIYRLQGSPLINSRFN | 1.04 ± 0.12 |
| PWCESLCVRRGAESVSTWVK | 1.2 ± 0.22 |
| PYGVSPWVRVVSCSIEGNWT | -0.289 ± 0.25 |
| PYMPGRMWSRILSVCSVCCV | 1.48 ± 0.58 |
| QCFDFTD | 1.1 ± 0.38 |
| QCLQCGP | -0.553 ± 0.49 |
| QCYVIYS | 4.513 ± 0.029 |
| QDEHIMVIVKLRRYTFNWEL | 2.86 ± 0.11 |
| QELIK | 0.574 ± 0.44 |
| QEYLLLVAAGKHVNVDKTYL | 0.594 ± 0.81 |
| QFCCVESLGLLALAWLFTGF | 3.62 ± 0.11 |
| QFDMEQFVQCPGTMSSRAVG | 5.04 ± 0.059 |
| QFGNVRLSS | 0.995 ± 0.53 |

| Substance | amyloid nucleation score |
| --- | --- |
| QFRPLDCCLLNFDDSRIYCL | 4.88 ± 0.074 |
| QFVNQRSYKGSLTFFMIRGR | inactive |
| QGGMMWGLLSYCEVLDDSDV | -0.08 ± 1 |
| QGHISHTGLIPMLGGSL | 3.23 ± 0.15 |
| QGLFLLSCPSSN | 2.54 ± 0.11 |
| QGNSETGGNMCYDASCWLYG | -0.064 ± 0.45 |
| QGTRAYQSKALTVSIMLMLV | 3.45 ± 0.096 |
| QGVSVLFGVSATLY | 1.19 ± 0.26 |
| QIELGALNNRCGNRDGSGDW | -0.842 ± 0.35 |
| QIFLIKIGAFVLLLTVQ | -1.34 ± 0.54 |
| QIFSECRTYDFVLPGYMGYY | inactive |
| QIFVR | 0.689 ± 0.55 |
| QINSHNWYDG | 0.369 ± 0.8 |
| QIQVLGWSRKSLMDNKL | inactive |
| QKNTSQCFVLSW | 0.129 ± 0.49 |
| QLICTMNFVAEYNWSALRRN | 4.55 ± 0.12 |
| QLNDWSYMVKFSAV | -0.466 ± 0.64 |
| QLVLKVRLWVDGLYVLEWGW | -0.042 ± 0.49 |
| QLYRCPFCHGGALSYYIRKV | inactive |
| QNLASIDLDYFFSEYYPLLA | -1.37 ± 0.42 |
| QNMNLVHEIGMNRSLVFTFW | -0.167 ± 0.29 |
| QNRKERYVYIFRAEWFPWCG | -1.13 ± 0.76 |
| QNYARL | -1.22 ± 1.1 |
| QPSVL | 0.524 ± 0.81 |
| QQCLINVSSRLLAGVNACSM | 1.22 ± 0.34 |

| Substance | amyloid nucleation score |
| --- | --- |
| QQYSADLLRGYPCMSYVPVG | -0.091 ± 0.26 |
| QRAYVPQTLGVRISVSSRWQ | 3.41 ± 0.096 |
| QRCWRSGTFSGM | -0.107 ± 1 |
| QRSAKLRALPEGIKHKKWLM | -0.108 ± 1.1 |
| QSKFDTFGSFACTYRYFTAN | 0.698 ± 0.8 |
| QSLFFVI | -0.395 ± 0.48 |
| QSLHRGR | -0.311 ± 1.1 |
| QSMICTFFVLCLRSRYW | 4.46 ± 0.068 |
| QSMMSFMSRNVFRFFMGKVT | inactive |
| QSVNCYNVNSDVCNKVYNDL | 0.716 ± 0.42 |
| QVALGNVCNRLYTLMARQAN | -0.283 ± 0.26 |
| QVGFPWFGRQVKDYLLLYKP | 0.22 ± 0.4 |
| QVRELVVLNSMGYPSSW | -0.188 ± 0.41 |
| QWGSMVSCRCYRPPTEGPGW | -0.605 ± 0.76 |
| QWSFPAILRLDTNTSRYYFQ | -0.776 ± 1.1 |
| QYDIVPNVSGNYPNGIFKDR | inactive |
| QYFFNMMLMMDMLSLGGLSY | -0.063 ± 0.45 |
| QYLLIIMFRYYLYCGVQRNY | -0.121 ± 1.1 |
| QYLSALSSAISGGDVYMMSK | 5.15 ± 0.065 |
| QYNKCSMALVFCYCS | 8.26 ± 0.038 |
| QYSTFATNRVFSKAIMHLSG | -0.445 ± 0.36 |
| QYVEFPLMLTET | 0.025 ± 0.79 |
| QYVVNLFYPLYMEKKCWSSI | 6.288 ± 0.039 |
| QYYRN | 1.51 ± 0.58 |
| RADALIVTVARFTPPALVKV | 1.15 ± 0.68 |

| Substance | amyloid nucleation score |
| --- | --- |
| RADPVRVYSCVEVLGRALLG | inactive |
| RAFCVGSTYSSSGGQSLMRV | inactive |
| RAFRKAGMYSYLSG | 3 ± 0.056 |
| RAFYLVTSPDFYFCRILGAT | inactive |
| RAIDRRKVFARYVFWSFSWT | -0.141 ± 0.33 |
| RAQFIQLGDEYYTRC | 0.564 ± 0.49 |
| RASASNR | -0.559 ± 0.36 |
| RASMVDF | 0.108 ± 0.65 |
| RASVFF | inactive |
| RCFCG | 0.226 ± 0.35 |
| RCFGFRVVRFVV | 0.014 ± 0.2 |
| RCFSRNFEECFENAYTWV | -1.07 ± 0.33 |
| RCGFLWCRHFPATSELGCVL | 0.752 ± 0.8 |
| RCLLKLDQV | -0.509 ± 0.4 |
| RCMFDIYFVLVTCEQWCCLV | 0.099 ± 0.49 |
| RCTKA | 0.341 ± 0.21 |
| RCWAAHYVDTWACNSLAVII | 1.19 ± 0.68 |
| RDGKDRAYCGW | 0.483 ± 0.5 |
| RDMLRQMNSYQEYLFVRLDN | -0.763 ± 1.1 |
| RECIYFRFYSRWATLSFLNR | -0.368 ± 1 |
| RECNRNFQKSGSSEHETGLG | -0.844 ± 0.54 |
| REEGFS | -1.29 ± 0.54 |
| REFMNFWHWRVCICAQE | -0.501 ± 0.38 |
| REHSYLSIFLWMCAFVTNVE | -0.98 ± 1.1 |
| REKVPYT | -0.428 ± 0.48 |

| Substance | amyloid nucleation score |
| --- | --- |
| REKVVKEPRTDESFVGRGGS | 0.724 ± 0.28 |
| RESWLAGMSVYWANSGMSFA | -0.487 ± 0.36 |
| RETLAFA | -0.329 ± 0.33 |
| RFDCLTVLLVFESYHFKTAG | -0.392 ± 0.31 |
| RFDRTRCETKSRLVRIR | 0.084 ± 0.41 |
| RFDSDNTFDPGRWYSCSQDA | -0.346 ± 0.53 |
| RFEYLFLEEYKLLAMRYLRT | -0.986 ± 0.3 |
| RFFADLTMDQFNIFGGLWQG | 1.09 ± 0.3 |
| RFGSLVFFCTGFERSWHTSA | 0.684 ± 0.44 |
| RFLLQS | -0.39 ± 0.61 |
| RFMVFGNLYDERYTVRFLMR | 3.66 ± 0.089 |
| RFNIFVLLFLVPEVGLHMVV | inactive |
| RFNVLRIGPLSHLQGWEHPT | -0.632 ± 0.63 |
| RFRGGSKSGLYFIVCISDVW | -0.758 ± 0.44 |
| RFSDM | -0.126 ± 0.31 |
| RFSGASNLVESPIKWIVGAH | 4.96 ± 0.06 |
| RFSQRNPITVHGQSDTV | inactive |
| RFVVSEGLIGVVGSSKLILY | 0.106 ± 1 |
| RFVYMDIRDMAGWTPLYVYP | -1.23 ± 1 |
| RFVYMLVCIELVG | -0.953 ± 0.78 |
| RFWIEVEVYDVISFVYLERW | 0.428 ± 0.34 |
| RGINKTDIFVFELCVHDVCL | 2.58 ± 0.16 |
| RGKYAITCVMLWK | 5.769 ± 0.054 |
| RGQMRLQRRLPKLRTSGKLQ | 1.49 ± 0.34 |
| RGVLTSSLFPSKGRWVVGHW | 2.35 ± 0.075 |

| Substance | amyloid nucleation score |
| --- | --- |
| RHFHGGSSIAARAVTWAGQG | 1.5 ± 0.44 |
| RHNRC | -0.117 ± 0.79 |
| RHPGPAL | 0.857 ± 0.25 |
| RHTYVHYAHKVYLESFLGCG | 6.327 ± 0.04 |
| RIATLSFDSAIIQVYLRGSG | 7.028 ± 0.033 |
| RICVKLKVDSGVKMHQTTAG | 7.952 ± 0.034 |
| RIDGVFTIVSFYMELEGIRV | inactive |
| RIDILGVTRWN | 0.633 ± 0.3 |
| RIEVLTLCGGEAGSLVMGIV | 1.16 ± 0.48 |
| RIFITIRIINPPKDFFIRCY | inactive |
| RIFTFLSVSHPN | 4.53 ± 0.053 |
| RIFVWVGSVWFWGVS | 3.55 ± 0.13 |
| RILIINLSPNEYMIGLH | 4.3 ± 0.1 |
| RIQINWDEFGQDRELRVSGR | 0.75 ± 0.5 |
| RIRRVSERMSVFRTLHRTMW | 5.01 ± 0.079 |
| RISCSMVKRSYFRHVLVCEI | 1.74 ± 0.26 |
| RISNVWENTFTLSAGSWGVR | 1.38 ± 0.22 |
| RISVYRPVGVLLF | 0.755 ± 0.4 |
| RITDYRCLTMNKGQSARNQG | inactive |
| RITPFWYQRIYRIMY | -0.339 ± 0.22 |
